The record followed here is publication PMC11317896, “Stem lodging Resistance-1 controls stem strength by positively regulating the biosynthesis of cell wall components in Capsicum annuum L”.

In the data set the target is T1, CaNAC6 (GST-NAC6 fusion) (Capsicum annuum, UniProt A0A1U8EDX1 1-299).
T1 sequence: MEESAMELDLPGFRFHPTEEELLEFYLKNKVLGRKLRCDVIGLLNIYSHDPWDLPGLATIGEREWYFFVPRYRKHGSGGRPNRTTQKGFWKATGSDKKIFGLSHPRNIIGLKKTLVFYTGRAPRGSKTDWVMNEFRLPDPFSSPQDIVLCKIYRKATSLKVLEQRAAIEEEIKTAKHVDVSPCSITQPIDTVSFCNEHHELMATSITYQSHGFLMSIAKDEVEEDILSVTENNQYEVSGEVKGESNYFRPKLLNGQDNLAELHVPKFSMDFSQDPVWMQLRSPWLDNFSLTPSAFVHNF
As to the kind of experiment: EMSA; LightShift chemiluminescence EMSA kit (Bes5003), 6% acrylamide gel; buffer, salt, pH and temperature not stated. The settings on record: protein: recombinant; tags: GST; chain copies: 2; label: biotin. On the technique in general: Mobility shift assays separate free from complexed probe on a gel.

B1: CaSLR1 SNBE1 mutant probe (dsDNA)
DNA 1: CTTTTGGATTTGTCTTGTAAGAAGATCAA
DNA 2: TTGATCTTCTTACAAGACAAATCCAAAAG
In the case of B1, the binding result was “no binding”.

B2: CaSLR1 SNBE2 mutant probe (dsDNA)
DNA 1: GTTGTGTTTCTCTTTTATACGTTGGTCGT
DNA 2: ACGACCAACGTATAAAAGAGAAACACAAC
Take B2: the binding result is “no binding”.

B3: CaSLR1 SNBE3 mutant probe (dsDNA)
DNA 1: TCTTAGTACTTATACCTCAAGGCGCAAGG
DNA 2: CCTTGCGCCTTGAGGTATAAGTACTAAGA
As to B3, the binding result was “no binding”.
